The text below walks through data of patent US20250101120A1 (BEIJING SOLOBIO GENETECHNOLOGY, published 2025).

Broadly, the EC50 is the midpoint of the concentration-response curve. Low values mean a more potent agent, high ones a less potent agent.

Read-outs that look alike come from different tables or passages of the source.

Assay [1] addresses T1, hFc-hFasL (fusion protein of human Fc fragment and human FasL extracellular region) (human, UniProt P48023 134-281).
T1 sequence: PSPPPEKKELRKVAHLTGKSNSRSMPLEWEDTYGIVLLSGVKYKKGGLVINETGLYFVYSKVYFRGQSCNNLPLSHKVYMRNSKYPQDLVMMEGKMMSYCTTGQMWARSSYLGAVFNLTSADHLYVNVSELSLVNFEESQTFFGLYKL
Briefly: cell-based or functional assay.

Assay [2] concerns the target T1, hFc-hFasL (fusion protein of human Fc …). Kind of assay: cell-based or functional assay. This is another data set of the same source.
For assay [3] the target is unchanged. Briefly: ELISA, hFc-hFasL coated, antibody titrated, anti-human kappa-HRP. Background: ELISA stands for enzyme-linked immunosorbent assay.
The target is the same in assay [4]. Briefly: cell-based or functional assay. The source holds these as a separate data set.
Assay [5] has the same target. Kind of assay: ELISA, hFc-hFasL coated, antibody titrated, anti-human kappa-HRP (protocol of Example 3.2).
The target is the same in assay [6]. Kind of assay: cell-based or functional assay. This is another data set of the same source.
The target is the same in assay [7]. Kind of assay: cell-based or functional assay. This is another data set of the same source.

B1: FL-M05 (antibody, V domains shown)
VH: EVQLQQSGAELVRPGVSVKISCKGSGYTFTDYTMHWVKQSHAKSLEWIGVISTYQGDARYNQKFKGKATMTVDKSSSTAYMELARLTSEDSAIYYCARFPDWDYAMDYWGQGTSVTVSS
VL: DIVLTQSPASLAVSLGQRATISCKASQSVDYDGDSYMNWYQQKPGQPPKLLIYAASNLESGIPARFSGSGSGTDFTLNIHPVEEEDAATYYCQHSRELPYTFGGGTKLEIK
notes: Chimeric full-length antibody, tested as human IgG4 / human kappa
For the molecule B1, the “EC50(nM), FasL antigen-induced NF-κB signaling pathway activation (SEAP, HepG2-Dual)” value (shortened to “EC50(nM) … (SEAP, HepG2-Dual)”) in assay [1] was determined as 1.13 nM. The “IC50(nM), FasL antigen-induced apoptosis of HepG2 cells (CellTiter-Glo ATP)” value (“IC50(nM) … of HepG2 cells (CellTiter-Glo ATP)” for short) in assay [2] was found to be 0.03 nM. Also, in assay [3], it took 186 pM to reach a half-maximal effect (EC50). Moreover, the “IC50(nM), FasL antigen-induced apoptosis of Jurkat cells (CellTiter-Glo ATP)” value (shortened to “IC50(nM) … of Jurkat cells (CellTiter-Glo ATP)”) in assay [4] was determined as 0.109 nM.

B2: FL-M08 (antibody, V domains shown)
VH: QIQLLQSGAELVRPGVSVKISCKGSGYTFTDYAMHWVKQSHAKSLEWIGVISTYQGDANYNQKFKGKATMTVDKSSSTAYMELARLTSEDSAIYYCARFPDWDYAMDYWGQGTSVTVSS
VL: EIVLTQSPASLAVSLGQRATISCKASQSVDYDGDSYMNWYQQKPGQPPKLLIYAASNLESGIPARFSGSGSGTDFTLNIHPVEEEDAATYYCQHSRELPYTFGGGTKLEIK
notes: as for B1
Turning to B2, in assay [1], the “EC50(nM) … (SEAP, HepG2-Dual)” value is 0.704 nM. The “IC50(nM) … of HepG2 cells (CellTiter-Glo ATP)” value in assay [2] turned out to be 0.016 nM. Further, in assay [3], a half-maximal effect (EC50) was put at 157 pM. Moreover, in assay [4], the “IC50(nM) … of Jurkat cells (CellTiter-Glo ATP)” value was found to be 0.035 nM.

B3: FL-M89 (antibody, V domains shown)
VH: EVQLQQSGAELVRPGVSVKISCKGSGYTFTDYTIHWVKQSHAKSLEWIGVISTYQGDASYNQKFKGKATMTVDKSSSTAYMELARLTSEDSAIYYCARFPDWDYAMDYWGQGTSVTVSS
VL: DIVMTQSPASLAVSLGQRATISCKASQSVDYDGDSYMNWYQQKPGQPPKLLIYAASNLESGIPARFSGSGSGTDFTLNIHPVEEEDAATYYCQQSRELPYTFGGGTKLEIK
notes: as for B1
For the molecule B3, the “EC50(nM) … (SEAP, HepG2-Dual)” value in assay [1] was found to be 1.33 nM. The “IC50(nM) … of HepG2 cells (CellTiter-Glo ATP)” value in assay [2] stood at 0.021 nM. The same molecule gave an EC50 in assay [3] of 441 pM. Besides, the “IC50(nM) … of Jurkat cells (CellTiter-Glo ATP)” value in assay [4] worked out at 0.023 nM.

B4: humFL-M88-4 (antibody, human IgG4, V domains shown)
VH: QVQLVQSGAEVKKPGASVKVSCKGSGYTFTDYTIHWVRQAPGQGLEWMGVISTYQGDASYNQKFKGRVTMTVDKSTSTAYMELSSLRSEDTAVYYCARFPDWDYAMDYWGQGTLVTVSS
VL: EIVMTQSPATLSVSPGERATLSCKASQSVDYDGDSYMNWYQQKPGQPPRLLIYAASNLESGIPARFSGSGSGTEFTLTISSLQSEDFAVYYCQHSRELPYTFGQGTKLEIK
notes: Humanized FL-M88
B4 had an EC50 in assay [5] of 288 pM. Moreover, in assay [6], the “HepG2 IC50(nM), FasL antigen-induced cell apoptosis” value (“HepG2 IC50(nM)” for short) amounted to 0.0333 nM and the “Jurkat IC50(nM), FasL antigen-induced cell apoptosis” value (“Jurkat IC50(nM)” for short) was 0.0294 nM.

B5: humFL-M88-9 (antibody, human IgG4, V domains shown)
VH: QVQLVQSGAEVKKPGASVKVSCKGSGYTFTDYTIHWVRQAPGQGLEWMGVISTYQGDASYNQKFKGRATMTVDKSTSTAYMELSSLRSEDTAVYYCARFPDWDYAMDYWGQGTLVTVSS
VL: EIVMTQSPATLSVSPGERATLSCKASQSVDYDGDSYMNWYQQKPGQAPRLLIYAASNLESGIPARFSGSGSGTEFTLTISSLQSEDFAVYYCQHSRELPYTFGQGTKLEIK
notes: Humanized FL-M88
B5 showed an EC50 in assay [5] of 284 pM. In addition, in assay [6], the “HepG2 IC50(nM)” value turned out to be 0.0225 nM and the “Jurkat IC50(nM)” value was found to be 0.022 nM.

B6: humFL-M88-7 (antibody, human IgG4, V domains shown)
VH: QVQLVQSGAEVKKPGASVKVSCKGSGYTFTDYTIHWVRQAPGQGLEWIGVISTYQGDASYNQKFKGRATMTVDKSTSTAYMELSSLRSEDTAVYYCARFPDWDYAMDYWGQGTLVTVSS
VL: EIVMTQSPATLSVSPGERATLSCKASQSVDYDGDSYMNWYQQKPGQAPRLLIYAASNLESGIPARFSGSGSGTEFTLTISSLQSEDFAVYYCQHSRELPYTFGQGTKLEIK
notes: Humanized FL-M88
Regarding B6, the midpoint of the response in assay [5], the EC50, lay at 340 pM. The “HepG2 IC50(nM)” value in assay [6] amounted to 0.0274 nM.

B7: humFL-M88-18 (antibody, human IgG4, V domains shown)
VH: QVQLVQSGAEVKKPGASVKVSCKASGYTFTDYTIHWVRQAPGQGLEWMGVISTYQGDASYNQKFKGRVTMTVDTSTSTVYMELSSLRSEDTAVYYCARFPDWDYAMDYWGQGTLVTVSS
VL: EIVMTQSPATLSVSPGERATLSCKASQSVDYDGDSYMNWYQQKPGQPPRLLIYAASNLESGIPARFSGSGSGTEFTLTISSLQSEDFAVYYCQQSRELPYTFGQGTKLEIK
notes: Humanized FL-M88
In turn, B7 yielded an EC50 in assay [5] of 272 pM. In addition, in assay [6], the “Jurkat IC50(nM)” value was found to be 0.0325 nM.

B8: humFL-M88-11 (antibody, human IgG4, V domains shown)
VH: QVQLVQSGAEVKKPGASVKVSCKGSGYTFTDYTIHWVRQAPGQGLEWMGVISTYQGDASYNQKFKGRVTMTVDKSTSTVYMELSSLRSEDTAVYYCARFPDWDYAMDYWGQGTLVTVSS
VL: EIVMTQSPATLSVSPGERATLSCKASQSVDYDGDSYMNWYQQKPGQAPRLLIYAASNLESGIPARFSGSGSGTEFTLTISSLQSEDFAVYYCQHSRELPYTFGQGTKLEIK
notes: Humanized FL-M88
In assay [5], B8 had an EC50 of 343 pM.

B9: humFL-M88-5 (antibody, human IgG4, V domains shown)
VH: QVQLVQSGAEVKKPGASVKVSCKGSGYTFTDYTIHWVRQAPGQGLEWMGVISTYQGDASYNQKFKGRVTMTVDKSTSTVYMELSSLRSEDTAVYYCARFPDWDYAMDYWGQGTLVTVSS
VL: EIVMTQSPATLSVSPGERATLSCKASQSVDYDGDSYMNWYQQKPGQPPRLLIYAASNLESGIPARFSGSGSGTEFTLTISSLQSEDFAVYYCQHSRELPYTFGQGTKLEIK
notes: Humanized FL-M88
As to B9, the EC50 in assay [5] was found to be 230 pM. In assay [6], the “HepG2 IC50(nM)” value was determined as 0.0222 nM and the “Jurkat IC50(nM)” value was 0.0186 nM.

B10: humFL-M88-17 (antibody, human IgG4, V domains shown)
VH: QVQLVQSGAEVKKPGASVKVSCKGSGYTFTDYTIHWVRQAPGQGLEWMGVISTYQGDASYNQKFKGRVTMTVDKSTSTVYMELSSLRSEDTAVYYCARFPDWDYAMDYWGQGTLVTVSS
VL: EIVMTQSPATLSVSPGERATLSCKASQSVDYDGDSYMNWYQQKPGQPPRLLIYAASNLESGIPARFSGSGSGTEFTLTISSLQSEDFAVYYCQQSRELPYTFGQGTKLEIK
notes: Humanized FL-M88
In assay [5], B10 returned an EC50 of 329 pM. That is a sub-nanomolar value.

B11: humFL-M88-12 (antibody, human IgG4, V domains shown)
VH: QVQLVQSGAEVKKPGASVKVSCKASGYTFTDYTIHWVRQAPGQGLEWMGVISTYQGDASYNQKFKGRVTMTVDTSTSTVYMELSSLRSEDTAVYYCARFPDWDYAMDYWGQGTLVTVSS
VL: EIVMTQSPATLSVSPGERATLSCKASQSVDYDGDSYMNWYQQKPGQAPRLLIYAASNLESGIPARFSGSGSGTEFTLTISSLQSEDFAVYYCQHSRELPYTFGQGTKLEIK
notes: Humanized FL-M88
As for B11, the EC50 in assay [5] turned out to be 276 pM. In addition, the “Jurkat IC50(nM)” value in assay [6] is 0.0234 nM.

B12: humFL-M88-6 (antibody, human IgG4, V domains shown)
VH: QVQLVQSGAEVKKPGASVKVSCKASGYTFTDYTIHWVRQAPGQGLEWMGVISTYQGDASYNQKFKGRVTMTVDTSTSTVYMELSSLRSEDTAVYYCARFPDWDYAMDYWGQGTLVTVSS
VL: EIVMTQSPATLSVSPGERATLSCKASQSVDYDGDSYMNWYQQKPGQPPRLLIYAASNLESGIPARFSGSGSGTEFTLTISSLQSEDFAVYYCQHSRELPYTFGQGTKLEIK
notes: Humanized FL-M88
On to B12, for which it took 235 pM to reach a half-maximal effect in assay [5] (EC50). Also, the “HepG2 IC50(nM)” value in assay [6] worked out at 0.0204 nM.

B13: FL-M56 (antibody, V domains shown)
VH: EVQLQQSGPELVKPGASVKLSCKASGYTFTRFDISWVRQRPEQGLEWIGWIFPGDGSTQYNENFKGKATLTTDKSSGTAYMQLNRLTSEDSAVYFCARSLISTAMFDHWGQGTTLTVSS
VL: DIVLTQSPASLAVSLGQRATISCRASKSVSTSDFSYIHWYQQKPGLPPKLLIFLASHLESGVPARFSGSGSGTDFTLNIHPVEEEDAATYYCQHSRELPRTFGGGTKLEIK
notes: as for B1
With B13, in assay [1], the “EC50(nM) … (SEAP, HepG2-Dual)” value was 2.73 nM. In assay [2], the “IC50(nM) … of HepG2 cells (CellTiter-Glo ATP)” value came out at 0.02 nM. Further, a half-maximal effect in assay [3] (EC50) was put at 661 pM. In addition, the “IC50(nM) … of Jurkat cells (CellTiter-Glo ATP)” value in assay [4] came out at 0.02 nM.

B14: humFL-M54-11 (antibody, human IgG4, V domains shown)
VH: QVQLVQSGAEVKKPGSSVKVSCKASGYTFTRFDISWVRQAPGQGLEWIGWIFPGDGSSQYNENFKGRATLTTDKSTSTAYMELSSLRSEDTAVYFCARSLISTAMFDHWGQGTLVTVSS
VL: EIVMTQSPATLSVSPGERATLSCRASKSVSTSDFSYIHWYQQKPGQAPRLLIYLASHLESGIPARFSGSGSGTEFTLTISSLQSEDFAVYYCQHSRELPRTFGQGTKVEIK
Consider B14, for which, in assay [7], the “HepG2 IC50(nM)” value amounted to 0.028 nM and the “Jurkat IC50(nM)” value was determined as 0.037 nM.

B15: humFL-M54-13 (antibody, human IgG4, V domains shown)
VH: QVQLVQSGAEVKKPGSSVKVSCKASGYTFTRFDISWVRQAPGQGLEWMGWIFPGDGSSQYNENFKGRATITTDKSTSTAYMELSSLRSEDTAVYFCARSLISTAMFDHWGQGTLVTVSS
VL: EIVMTQSPATLSVSPGERATLSCRASKSVSTSDFSYIHWYQQKPGQAPRLLIYLASHLESGIPARFSGSGSGTEFTLTISSLQSEDFAVYYCQHSRELPRTFGQGTKVEIK
Consider B15, for which, in assay [7], the “HepG2 IC50(nM)” value was determined as 0.029 nM and the “Jurkat IC50(nM)” value was found to be 0.028 nM.
